Assay results taken from patent publication US20140094385, “SEQUENCE-SPECIFIC ENGINEERED RIBONUCLEASE H AND THE METHOD FOR DETERMINING THE SEQUENCE PREFERENCE OF DNA-RNA HYBRID BINDING PROTEINS” (MIEDZYNARODOWY INSTYUT BIOLOGII MOLEKULARNEJ I KOMORKOWEJ, published 2014).

B1: literature ZfQQR site hybrid (LDNA/LRNA) (DNA:RNA)
DNA: TCACTGGGGAAGAAGAATCCTC
RNA: GAGGAUUCUUCUUCCCCAGUGA
B2: SELEX consensus hybrid (CDNA/CRNA) (DNA:RNA)
DNA: TCACTGGTCGGTGGGAATCCTC
RNA: GAGGAUUCCCACCGACCAGUGA

Target: GST-ZfQQR (zinc finger ZfQQR) (artificial)
Test: filter; 25 mM Tris pH 8.0, 100 mM KCl, 20 uM ZnSO4, 2 mM DTT, poly dI-dC, room temperature; protein called zinc finger ZfQQR, GST fusion is the purified form described
Conditions: tags: N-terminal GST (pGEX-4T-1); label: radioactive
Method: To confirm that the consensus sequence obtained after five rounds of SELEX is bound by the zinc finger, a constant KD was measured using the nitrocellulose filter binding method. The assay was performed with radioactively labeled substrates described in the literature (LDNA, LRNA) and a consensus sequence (CDNA, CRNA) see FIG. 16:
Binding reaction contained 2 nM of labeled substrate, 2 μg poly dI-dC as a nonspecific competitor, 25 mM Tris pH 8.0, 100 mM KCl, 20 μM ZnSO₄, 2 mM DTT. The binding reaction was incubated for 30 min at room temperature and then filtered immediately through a nitrocellulose filter and washed with 8 volumes of reaction buffer of 25 mM Tris pH 8.0, 100 mM KCl, 20 μM ZnSO₄, 2 mM DTT. Measurement of the intensity of the signal coming from the retention of radioactively labeled substrate was made on an audioradiogram of the nitrocellulose filter using a Typhoon Trio scanner and ImageQuant TL software.

Chain of GST-ZfQQR (zinc finger ZfQQR) (artificial) (chain, as listed by the source): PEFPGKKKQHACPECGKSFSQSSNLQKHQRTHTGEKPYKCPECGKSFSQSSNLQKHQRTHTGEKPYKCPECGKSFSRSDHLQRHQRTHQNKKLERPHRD

Row | Binder | Kd [nM]
1 | B1 | 188
2 | B2 | 155
